Experimental data reported in the NTF2 design screens of Basanta et al. (2020).

Experiment: protease stability score; higher = more stable; yeast display proteolysis, trypsin and chymotrypsin;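 further: log10 excess protease needed over predicted unfolded state with 0 meaning unfolded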
Sequence “DEELRKNFHTFLELMKNGNPEKLAEMADPNVRVNIGDEQLRGKHRLHQHARHLKHSLRFDYQSVDVKVTGNRVDANLRVVVKVNGKPIDYTVKIHITWRNGKIKTMEIKIPEDDQKKMRR” has a protease stability score of -0.089. With “DEELRKQAEELLKARKTNDERQNEELFDPNAHVRYGDRTLHGNEQASKDIADRLEEIRVSMSVEKVEVQGEHVRLEFKFEFEVNGRPQTQTATEEMTVHNGRIKEVRLNVSEEQKRRYKK” the protease stability score was -0.026. For “DEELRKQAEEVMKAWQHGDEKTYMDLFDPNAKWEYGDDNITGRENMSDYMRKVRKEIRVHVQSVEVRAHNGRLEVVATEEREHNGRPDTVTVIMEAKAHNGKIQVVRVEERQ”, the protease stability score was 0.404. “DEELRRRLEKFFRDLRNGNESEAVKLVDPNARFNIGDTEYHGMHDYARELLRQRHKLNWHVRQVTIEAKNGHVNITMSVQFNVNGRPDSYTNTVRAVLHNGRVKEMSNRVPKDQLHKIKK” gave a protease stability score of 0.209. In the case of “DEELSKRAKHLIEMMKTGDEKEIQKQMDKDVKIDIGDKTIKGREDAAEQWRNRVEKIRWSLTIRHVNVQGNHVTMNVEVHLNVNGQPNRYTIEISFTFHNGKIVYISVSFDEDTEEKAKK”, the protease stability score is reported as 1.18. Sequence “DEELTKRAQKQINVLRTGDEKKVLELMDPNAKLSVGEKEYHGMEDIAKTLAQENRQMRIDVKDMKFTSKGDTVDVTLSYVVDHNGQPDEQVVRVHIVAHNGKIKSQEVRRDS” has a protease stability score of -0.762. With “DEELVDQVKSFIELLQKGNEDELMKQLDEDAKIHYGDKTIHGREQVREWVKRFKDEMRQKIDSVQFREKPNRVSMKADMSYTQNGTPHDQQIDATFRAHNGRIKQVNIQLTK” the protease stability score was -0.084. “DEELVEQLKKMYENEKNGDPDKVHEQFDKDARIDIGEKQVRGRDQASREAERERKQINVEIKHVDIKAHNGRATIDMVIVFNINGQPHRRRVTVYAVLHNGKIKSMSRHMDPSEQDQLTQ” showed a protease stability score of 0.343. In the case of “DEELVKRAEDMIKAIQRGDEDRINQMVDPNADVRVGDQRYDGMHEYVTRLKSRQKRMRRSVSVESVTAKNGQVRIDAKMTRNDNGRPERFKHIIIIKAENGEIQVIHVHKSQ”, the protease stability score is reported as -0.078. In the case of “DEELVKRLKKLLEALESGDEEKVHHMFDPNVRFQVGDKRFHGRERYASTVKREKDEMRNEVTSYRLTATGDKAEMSFRNILDENGSPHDDIQVMHVHVQGDKIKRASIQETR”, the protease stability score is reported as 0.071. With “DEELYKLMEQVIKAWEENDETQLKRLADPNVKVSIGDKRVHGRDQMAEDAKRRKKQLRFNIDIKSYSVHNGRVNARATVHNDVNGQPREDTVNIQMEWSNGQLTNFNMRMDEDFLRKIRS” the protease stability score was 0.752. “DEEMEKRWEEWLDAVTTGDESRVREYMDPNVRYNYGDKHYTGREEIAHDTVREVKRIRIEIKTMSNDDQGEHVRVRFNRVKNDNGEPKEEVLVVEFTQENGRITEATQHEDR” gave a protease stability score of -0.004. Sequence “DEEMLEVVKQLLHAYQNGDEEKVKRLLDPNARVQVGDQVVHGRESYANEVRKERDEIRFDVKITSVKVHNGKIDIKADVHVNINGKPVKFDVIIEYKMEGDKIKQINVQMDPSQWKERES” has a protease stability score of 0.913. Work on “DEEMNKRAKRLVDVLRTGDFREFLEMVDPNARVQIGDKSWHGMEDYVHDLKEKRDQIKMHYEVKHMTAHDGRAHLEIDAEANVNGQPLSFSFTLHLQFQNGRVTHAEYQLDEDRLRKLEQ” yielded a protease stability score of 0.911. “DEENADVIRRFLDAIHTGNPDDARKNADPNAQYKIGDKTYSGMERWVKTLQDQKRHQEIDIKIKHISVKGDKITVEFVVVVNINGRPVSFSAILSAEVKNGKIKHLQYHISEEQKRKVEG” gave a protease stability score of 0.222. With “DEENAERLKKIFRAVQENDSKQIERNFDPNAEVTYGDKTVTGREEQSREYHKILHEIRVRIQIKHVKVHNGRLSIHAKMDREHNGEPDDATLIVEAHFHNGKATEQQNDVHK” the protease stability score was 0.44. In the case of “DEENAHEAVRIWETGDPQENADLVDPNVHARYGDKKIRGREDMEEFWRRMHHQIDHKDVRDIQVSGNHIEIDMEINVDGVRARYVARYHMDNGKIKSANAEFRDPDEKQDIRRALD”, the protease stability score is reported as 0.275. Sequence “DEENAKIIENLIRANETNDPDRAVQLADENVDFRIGDRTYRGMDEYATQMAHEFKEIEMRIHLKTFDTQGEKVRLEADVKRTHNGKPESFRAVMVANASNGRVVEIDVQMDK” has a protease stability score of 0.974. “DEENAKTLKQQMNQYQSGDEEEVQENVDKDAKFVIGDKRIHGREKYREQVRRELEDIRIDVKIKHLNDKGEKVQVHARLERNHNGRPTDATVDVVVRWHNGRAKEAQFHTDG” showed a protease stability score of -0.11. Work on “DEENEDIFRKYLEDLKKGDPKKLKEQFDKDAEVKVGDDVLHGRRSIARTLHEERKEMRVEIEDVKVRAHNGQLEVRFQQTVDHNGRPKTVRARMEVKFHNGRIKHLSVDERE” yielded a protease stability score of -0.331. With “DEENEDLLRKFVEALERNDEDKIMEQADPNAELRYGDKHIHGREKMRELVQNREKELRLDVKDFEVDVNNGHARITVENVQETNGRPTTTRYRIDASIHNGRLQKVNITSDK” the protease stability score was 0.287. With “DEENEKFARRYLEALKHNNPHEMQNMIDPNATLNVGDTRIDGDDQAKKFWSKKLQEISISIRKVSVEVSGNRIDIDAEYELEHNGKPDVNRRTVHLNVKNGKITDLKVRHDK” the protease stability score was -0.063. Work on “DEENEQLFNEFLKAMEHGDPNRLNQLMDPDVHIRVGDKQIHGREEAAREIVRQMKEQNRHIDSIEVSAENGELTVNVEMFQTHDGKPKKYTYRAKIVFENGKIKHIDRKHSQ” yielded a protease stability score of 0.884. In the case of “DEENHRRATELLRAWKTGDEEELKRQMPPDVHIRVGDQEVHGREQAVKHLAQRRREASFRFKIKEYELQGEKIRIVARAEVHHNGEPQRYVVRLVILYRNGQAEEINQQEDG”, the protease stability score is reported as 1.25. With “DEENHTLAKMWFHAYNKGDEDQVRRMADPNVKIQIGDKVIHGRNDEVRWLKERRDHQRSDIKLDHVSASNGRVQIHFTFTVQHNGKPNTSKQQLSMVFQGDKLKSLHMRTDG” the protease stability score was -0.112. With “DEENIEQLRRMMTNLNTGDFHKMVNLMDPNARVRYGDRQISGREEVRKEWEKIVKSMHIERQVRSIEDHDGRAYADVELRVNVDGRPFSVRFTVVVEVRNGRVKFLEVRVPEEFMEKLDS” the protease stability score was 1.07. “DEENIRVYQEMLEAIKEGDQKRVQELVDPNVEAVYGESQVHGREDIARDLRRVREESRRDVTTYKVTDTNGQITINVDFFQTHDGRPTRKEASVHVQITNGKVKFVEMRDDQ” gave a protease stability score of 0.248. “DEENKHAAERLMRAIQKGDPDDMVRNMDKDAKVNIGDQQFHGREEVAKQNRKDNKEMRYHQEVKSISVDGDKVTVEATAQFTYNGQPDTFKFSFRAHLHNGRIRHLDVHFDEQTKRDQES” gave a protease stability score of 0.101. With “DEENKKQAERLYTALEKNNPEELKKLADPNARVEVGDTTYHGMRKFLRDLAQTLKELRVEVIEIEIDVQGNQVTAHVHVRVEKNGQPDEFVLIFHFELSNGRIKRVRVERHQ” the protease stability score was 1.12. “DEENKKRFDKFQEVQKQGDPKQLQSLMDPNVEWRVGDKNYHGRQEIAKDRIRVQREIRIEFNITHYENHNGRVKIHAEAKAKVNGRPQTYDYSFEVVVHNGKIKELNWRVDPEEVDRIES” gave a protease stability score of 0.67. “DEENLDAARRLIDALKNNDPDHAMENADKDVRVHIGDWHVHGREDMSRLIKELVDEMRVDVKDVKTRKDGETAVITIDAVFHVNGEPKRDTFTMNVKAHNGHVQRIHARVSEEDVRKLKQ” gave a protease stability score of -0.086. With “DEENLEIAKDLIRAQETGDEERIQNLLDPNVKIDVGDKSIHGREHLRKTQQEQKRNMRFDVDSVENKVHNGQVRVDAHVRERHNGQPTTKRYTLHMHFHNGKVERIRLQDKG” the protease stability score was 0.318. With “DEENLHRRAEQFVKALEHGDQHQFRRMFDENARVEVGDKFFHGREEVARFMRDLTRRIDHVQFRRMEVRGEKIIVKAEAHVNGKRVTIIFDLTVKNGRIKHVRITFTDEKDRREFER” the protease stability score was 1.12. Work on “DEENLKKVREFLEHLVTGNEREVKHLMDPNAEMEVGDKKYSGTEQLRRLMQELKRHQTNKYDIKDMKVQGNKADLKAKVIERHNGQPDDTEQQFFATMSNGRFKKVSFRTDK” yielded a protease stability score of -0.295. In the case of “DEENLNQLKKFWHALQTNNPDQARKLADPNVRLHVGDKSVNGREEMVKRLVDKMHEMEIDYKVRDMHAHNGHIKVEAERVIHDNGQPRRATYEIRVIIKNGRIKEIQIHERQ”, the protease stability score is reported as 1.07. With “DEENLNRLDEFQQAVQTGDEKEAEELVDPNARVNVGDKQVNGMDKLRRTIHNKRRKMRVEIDHVNFRAKGNHVTARFDFHVNHNGTPRRTQMNVEARFKNGRIKSLRNESVS” the protease stability score was 0.121. For “DEENLQKIAHKVVRALHDGDPHQMHDLFDKDARISYGDKSVHGRNEISKAAHEREERVDDIDFKSFSVKNGHVEVDAKYDHNGQRREVIVQVEMHNGRIKSARFTKK”, the protease stability score was 0.2. Sequence “DEENLRTLAQEVKDILQTGDEEKLKEMLDKDVRLEVGDHVYEGSENAAKAANHWKERADHIQVDSIEIHGNELRIDVRVNVNGKNIDIDIVVTFSNGRIREMKFQYRDEDEKRQLER” has a protease stability score of 0.809. In the case of “DEENLRVVVHLMKAVETGDPTKARRNLDKDVHFNVGNRRIHGREQFQKELDDEKKDISINVKDYRVRDKNGKAHFTVRFVLEVNGRPMEMKITMQAEAHNGRIKHVQQQVSEEDEKRINK”, the protease stability score is reported as -0.094. With “DEENMEVLEKVLDAMRTGDKKKVRDNLDKDARIEIGDHVLNGREEFAKWVVQIKKEIKVQINIQSVDVSNGRVRVHAQVEFRVNGQPQQYTIHIVAEIHNGHIKTLRMSFDDDQQRKFES” the protease stability score was 0.924. “DEENMEVYQTQLKVEQRGNEEELVKLIDPNAEVRIGDKQVKGRENIAHTIKQETDKMERKIESLNLSAHNGEIHIKATVVQTHNGEPRTDSYVMRIHLHNGRLKQMDVHKSN” showed a protease stability score of 0.541. With “DEENMHKLQEIIRTNDETKFNEMMDPNVEIEVGNKTYHGREEAIKFQRRVNQHVDKIQVDYVEVQGDSLRADYVVQVNGQNVRVDLEIRVEDGRAKEIRLNFRNEEEHKMYEKWLS” the protease stability score was 1.34. “DEENQKIFDEYVKALRTNNPERLNEMLDPNARVQVGDKEVHGMDDLSRTVNQMIDNLHLNLKIESVHVRGNTLSVDAEYVLNVNGKPQRRSVEIEIHAHNGTVKFLRMRVDPREEQKIKS” gave a protease stability score of 0.363. “DEENQKQIKKIWHAWEKGDEQKAQDMVDPNVNIQVGDKHISGQDSLREDLRRKRHEMRVRVRFHDINIDENHISVKIEVLNEKNGRPSTKVVVFEATVHNGKIKSMEFRDDD” showed a protease stability score of 0.494. Work on “DEENQQDYARKMNEMIVQNDPDEALRLFDPNVKVDIGDTRIDGRHDLERWVEDLKKQVDHVQLHDVKFRGDHASIHIEMTVNGRTISQIYHIVFHNGKAKEMKVETK” yielded a protease stability score of 0.567. “DEENQRLAEEFIRAFEKGNPDQAATMADPNVKIDIGEKRIHGHEELKKWIEELQRQMRVEVEHYEVEADGDKVIARLIFRQEHNGKPQEDKEQVNIRFHNGRAKSVTIRSTK” gave a protease stability score of 0.028. In the case of “DEENREVAERWLDALKRGDPKKANEQMDPNARLRVGNKTVHGREDFEQMIRKWQEHMSFSVETMTVQVEGNKIIIKATREVVVNGRPHKDTFEFEIEIQNGKIKEITIHFPEQELKEIED”, the protease stability score is reported as 0.815. Work on “DEENREVMERFVQAFNRNNPDQLNTNADPNAKFVIGDKTINGRERMKKWQEEQNTHMRQHLEVTSISVHGNSITARVRMQFQVNGQPQEVDLTLHATIHNGQIKQLTFNLDKDEKKQIDK” yielded a protease stability score of -0.133. “DEENRHAAEQYLTALRTGDEEQLKKNADPNVRVQVGDKQWTGMERYAHDQVRQLKEIHIEIKVDDIKVSNGEVDMKAERNSNHNGKPSRNRASLTIVVHNGKIQEIHWQEDS” showed a protease stability score of -0.47. For “DEENRHQINEMWKQIQTNNPDEVMKQLDKDVQVVVGDKQIRGREEFAKHVEQLLREMDVEYHSIKVKVHNGEAHVKVRHTVDVNGKPREDTLDVQLQMKNGHVKHFELRIDEDKLEKLKR”, the protease stability score was -0.169.
